Assays:
[1] = tested on: caveolin-1 phosphorylation on tyrosine 14; experiment: Phospho-caveolin-1; format: cell-based, human; settings: Src kinase inhibitor pretreatment before Aβ42; hCMEC/D3 cells; western blotting
[2] = tested on: lysosomal compartment; settings: from 25 nM in extracellular fluid; ref [58]; cited from earlier work
[3] = tested on: polarized hCMEC/D3 cell monolayers; experiment: Energy dependent uptake of F-Aβ, flow cytometry with or without ATP depletion; format: in vitro ADME, human; settings: 1 μM, 30 min; flow cytometry histograms

Row | Molecule | intra-endothelial accumulation in ATP depleted cells compared to control cells [3] | also measured
1 | Cc1ccc(-c2nn(C(C)(C)C)c3ncnc(N)c23)cc1 [PP1] | – | effect of pretreatment on Aβ42 induced caveolin-1 phosphorylation [1]: block the phosphorylation
2 | amyloid beta peptide 42 [Aβ42] | – | concentration in the lysosomal compartment [2]: 2500 nM
3 | F-Aβ42: fluorescently labeled soluble Aβ42 | significantly reduced | –
4 | F-Aβ40: fluorescently labeled soluble Aβ40 | significantly reduced | –
